Measured values from patent US20020197617, “Aptamers as reagents for high throughput screening” (GILEAD SCIENCES, INC., published 2002).

Tests used:
[1] = target: PDGF-BB (platelet-derived growth factor BB) (Homo sapiens, UniProt P01127 P01127:82-190); assay: 33-mer described previously (US 5,723,594); measurement conditions not stated; conditions: tags: R&D Systems, carrier free lyophilized; chain copies: 2 (inferred, homodimer)
[2] = target: T1, Wheat germ agglutinin (WGA) (Triticum vulgare, UniProt P10968 P10968:27-197); assay: filter; 10 nM aptamer and 10 nM WGA, HBSMC pH 7.4, room temperature; displaced by (GlcNAc)2, (GlcNAc)3 and (GlcNAc)4, not by GlcNAc; conditions: tags: EY Laboratories; chain copies: 2; label: 5'-32P
T1 sequence: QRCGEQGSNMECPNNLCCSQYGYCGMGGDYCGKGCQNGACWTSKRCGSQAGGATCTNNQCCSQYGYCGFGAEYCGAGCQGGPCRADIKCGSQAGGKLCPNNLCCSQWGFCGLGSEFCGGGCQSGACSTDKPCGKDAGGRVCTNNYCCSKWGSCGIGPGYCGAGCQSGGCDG
Protocol: Small molecule oligosaccharides were screened for their ability to compete with WGA aptamer 11.20 for binding to wheat germ agglutinin protein. The small molecule (or cold 11.20) competitors at varying concentrations were mixed with the 5′-32P end-labeled 11.20 ligand at room temperature. Then WGA was added to the mixture and allowed to equilibrate for 60 minutes at room temperature. The competition mixtures (90 μL volume) all had 32P end-labeled 11.20 at 10 nM, WGA at 10 nM and were in 25 mM Hepes, 137 mM NaCl, 2.7 mM KCl, 1 mM MgCl₂, 1 mM CaCl₂, 0.067% human serum albumin (HSA), at pH 7.4 (HBSMC). Aptamer bound to WGA was separated from free aptamer by filtration through pre-washed […] nitrocellulose membrane filters. Filters were washed with 5 mL HBSMC at room temperature. The filters were placed in tubes with scintillant and the radioactivity counted to quantitate the fraction of 32P end-labeled 11.20 bound at each competitor concentration.

PDGF-BB (platelet-derived growth factor BB), sequence (P01127 82-190, one chain of several): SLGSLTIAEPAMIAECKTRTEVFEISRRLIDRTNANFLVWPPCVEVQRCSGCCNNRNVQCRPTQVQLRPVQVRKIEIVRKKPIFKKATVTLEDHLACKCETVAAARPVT

In the case of CGGGCGCGTTCTTCGTGGTTACTTTTAGTCCCG (ssDNA) [20ta], the Kd [1] is reported as 0.05 nM.

B1: 11.20 (ssRNA)
RNA: GGGAAAAGCGAAUCAUACACAAGAUUGGUCGUACUGGACAGAGCCGUGGUAGAGGGAUUGGGACAAAGUGUCAGCUCCGCCAGAGACCAACCGAGAA
modifications: 2'-NH2 pyrimidines
B1: binds [2].
